Results published in paper PMC10532227.

Key:
PARP1 = assay: spFRET microscopy; conditions: buffer, salt, pH and temperature of binding assays not given in the material (Methods 4.4-4.7 empty)
[1] = target: fluorescently labeled mononucleosomes assembled from octamers of recombinant human histones and DNA containing the 147 bp nucleosome positioning sequence 603 (human); assay: spFRET microscopy; as a2 but nucleosomes N(13, 91) (1 nM) preincubated 15 min with EGCG (0.8 µM) before PARP1 (20 nM), or PARP1 preincubated with EGCG; TB150 buffer, room temperature; then NAD+ (20 µM), 45 min
[2] = target: fluorescently labeled mononucleosomes assembled from octamers of recombinant human histones and DNA containing the 147 bp nucleosome positioning sequence 603 (human); assay: spFRET microscopy; nucleosomes N(13, 91) (1 nM; Cy3/Cy5 on nucleosomal DNA) with PARP1 (20 or 50 nM), 30 min at room temperature in TB150 buffer (20 mM Tris-HCl pH 7.9, 5 mM MgCl2, 150 mM KCl, 1 mM β-ME); then NAD+ (20 µM), 45 min; no EGCG

| percent of detected particles in the EGCG–nucleosome–PARP1 complex at 20 nM PARP1 and 0.8 µM EGCG [1] [%] | percent of nucleosomes in the complex at 20 nM PARP1 [2] [%] | Substance | binding signal (% nucleosomes bound) (PARP1; 20 nM PARP1, no EGCG) | binding signal (% nucleosomes bound) (PARP1; 20 nM PARP1 added to nucleosomes preformed with 0.8 uM EGCG) |
| --- | --- | --- | --- | --- |
|  |  | N(13, 91) nucleosome | 65 | 67 |
| 67 | 65 | human poly(ADP-ribose) polymerase 1 fused with hexahistidine tag at the N-terminus (from UniProt P09874 1-1014) (enzyme) |  |  |
